In this assay the target is Lysine-specific demethylase 1 (human (endogenous in HEL), UniProt O60341 1-852). Description: affinity purification with mass spectrometry; LSD1-IP from HEL cells treated with NCD38 or DMSO; label-free quantification (Progenesis QI); binding rate change = normalized abundance in NCD38-treated cells divided by that in DMSO-treated cells, normalized to LSD1. To be noted: partners not purified.

B1: GFI1B (natural protein)
chain: not shown
notes: GFI1B, human, UniProtKB Q5VTD9; source: endogenous, HEL whole-cell lysate
In the case of B1, the “binding rate after NCD38 relative to DMSO” value turned out to be 27%.

Values taken from paper PMC5940392 (Oncotarget, 2018).
